# In paper PMC6093232, “PROMIS, global analysis of PROtein–metabolite interactions using size separation in Arabidopsis thaliana” (The Journal of Biological Chemistry, 2018):
# B1: dipeptide Tyr–Asp (peptide)
# peptide: YD
# notes: free dipeptide Tyr–Asp, printed in three-letter code; source: synthetic peptide; bought: Eurogentec
# Target: His6-GAPC1/2 (cytosolic glyceraldehyde-3-phosphate dehydrogenase, GAPC1 or GAPC2) (A. thaliana, UniProt P25858 1-338)
# Assay: nano-DSF (thermal shift, Prometheus NT.48); plant GAPCs 0.2–0.25 mg/ml with 25 μM (GAPC1/2, GAPCP1) or 50 μM (GAPCP2) dipeptide in 1× PBS; thermal ramp 2 °C/min, 20–90 °C; Tm from F350/F330
# Conditions: both partners purified
# His6-GAPC1/2 (cytosolic glyceraldehyde-3-phosphate dehydrogenase, GAPC1 or GAPC2), sequence (P25858 whole entry): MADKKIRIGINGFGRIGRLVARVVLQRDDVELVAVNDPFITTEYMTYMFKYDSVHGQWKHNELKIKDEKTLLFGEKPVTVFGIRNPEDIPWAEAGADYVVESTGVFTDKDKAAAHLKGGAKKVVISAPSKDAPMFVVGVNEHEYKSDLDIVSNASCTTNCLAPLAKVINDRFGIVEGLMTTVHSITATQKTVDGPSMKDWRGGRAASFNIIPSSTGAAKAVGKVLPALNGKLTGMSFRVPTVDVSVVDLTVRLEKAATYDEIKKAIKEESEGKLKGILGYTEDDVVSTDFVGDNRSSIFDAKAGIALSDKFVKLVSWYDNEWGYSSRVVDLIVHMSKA
protein,measurement,value
B1,decrease of Tm with 25 μM Tyr–Asp,~1 °C
